The labels stand for the following.
B1: Asp(CONHC12)-Val-Val-Val-Val-Val-Val-Lys-Lys-Lys-Ser-Gly-Gly-Gly-Tyr-Pro-Val-His-Pro-Ser-Thr (9) (peptide)
peptide: {Asp(CONHC12)}-VVVVVVKKKSGGGYPVHPST
modifications: also: reverse polarity: Asp(CONHC12) built on Rink amide resin, end direction unclear

Ends that are not written are not given here. Asp(CONHC12) = Asp whose side chain is modified with dodecylamine

T2 sequence (P01137 279-390 limits assumed): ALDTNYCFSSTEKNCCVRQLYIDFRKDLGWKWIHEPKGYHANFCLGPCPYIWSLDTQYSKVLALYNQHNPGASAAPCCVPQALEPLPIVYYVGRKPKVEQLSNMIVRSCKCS

One assay deals with T1, recombinant human bone morphogenetic protein-2 (human, UniProt P12643 283-396).
T1 construct: Bought growth factor (Peprotech), physisorbed on microtiter wells for panning and ELISA; also called rh-BMP-2; BMP-2
T1 sequence (P12643 283-396 limits assumed): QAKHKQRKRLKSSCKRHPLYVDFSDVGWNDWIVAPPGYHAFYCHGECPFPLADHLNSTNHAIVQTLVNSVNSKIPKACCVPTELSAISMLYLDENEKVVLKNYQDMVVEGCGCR
The experiment in a line: fluorescence depolarization.
Consider KQALTQT, for which the Ka is 210000 M⁻¹.
Still for that read-out and setting: next, YPVHPST: 1.9e+06 M⁻¹.

In another assay the target is T1, recombinant human bone morphogenetic …. As to the kind of experiment: cell-based or functional assay.
With B1, the “expression of osteocalcin in mesenchymal stem cells (western blot)” value is 0.5 ratio (binding gels : no binding gels).

The next assay has as its target T2, recombinant human transforming growth factor β1 (human, UniProt P01137 279-390).
T2 construct: Bought growth factor (Peprotech), physisorbed on microtiter wells for panning and ELISA; also called rh-TGF-β1; TGF-β1
As to the kind of experiment: phage ELISA on coated growth factor, anti-M13-HRP; grade of relative binding strength, 1 highest to 4 lowest. On the technique in general: An ELISA detects its analyte on a solid surface through an enzyme-linked reagent.
For LPSPIQK (Tested as M13 phage clone), the binding result is “binds”.
As to LRNYSHS (Tested as M13 phage clone), the binding result was “binds”.
Take GKYPPTS (Tested as M13 phage clone): the binding result is given as “binds”.
For LPLGNSH (Tested as M13 phage clone), the binding result is reported as “binds”.
Consider AWKSVTA (Tested as M13 phage clone), for which the binding result was “binds”.
Still for that read-out and setting: next, PAPRWIH (Tested as M13 phage clone): “binds”; RTTSPTA (Tested as M13 phage clone): “binds”.
On the same count and under the same terms, next, VYRHLPT (Tested as M13 phage clone): “binds”.
Same read-out and setting: next, RVSTWDT (Tested as M13 phage clone): “binds”.

For the next assay, the target named is T1, recombinant human bone morphogenetic …. Described as above.
DVSPAYH (Tested as M13 phage clone): the binding result is “binds”.
Still for that read-out and setting: next, KVPPANT (Tested as M13 phage clone): “binds”; PFDPPVR (Tested as M13 phage clone): “binds”.
On to QQTQAQH (Tested as M13 phage clone), for which the binding result is reported as “binds”.
For WPALFTH (Tested as M13 phage clone), the binding result is recorded as “binds”.
PGPTVQG (Tested as M13 phage clone): the binding result was “binds”.
For the molecule LHYPFMT (Tested as M13 phage clone), the binding result is recorded as “binds”.
With PIQPDER (Tested as M13 phage clone), the binding result is given as “binds”.
